We go through 4 molecules from PMC11055865, “Mechanism of DNA unwinding by MCM8-9 in complex with HROB”.

For data set [1], the target named is T1, HROB-FLAG (human, UniProt Q8N3J3-4 1-646, T126P).
T1 sequence: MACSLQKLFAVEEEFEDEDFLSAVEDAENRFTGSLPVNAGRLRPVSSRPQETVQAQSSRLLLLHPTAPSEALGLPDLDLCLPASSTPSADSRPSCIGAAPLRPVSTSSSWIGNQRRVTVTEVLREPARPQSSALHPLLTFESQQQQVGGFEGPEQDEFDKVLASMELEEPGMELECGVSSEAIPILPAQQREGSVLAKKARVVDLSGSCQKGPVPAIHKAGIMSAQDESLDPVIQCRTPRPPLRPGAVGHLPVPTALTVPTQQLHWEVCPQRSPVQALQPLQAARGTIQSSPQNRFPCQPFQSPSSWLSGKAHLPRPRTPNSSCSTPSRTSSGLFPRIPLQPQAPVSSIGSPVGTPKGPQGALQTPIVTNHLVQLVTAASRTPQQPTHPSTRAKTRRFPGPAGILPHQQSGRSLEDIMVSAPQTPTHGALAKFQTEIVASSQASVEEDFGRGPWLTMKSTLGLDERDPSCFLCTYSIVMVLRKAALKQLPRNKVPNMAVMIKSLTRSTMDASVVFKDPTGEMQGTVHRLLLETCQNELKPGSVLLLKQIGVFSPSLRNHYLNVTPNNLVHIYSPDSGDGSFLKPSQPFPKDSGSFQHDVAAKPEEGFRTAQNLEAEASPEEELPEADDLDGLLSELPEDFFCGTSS
Kind of data set: EMSA; 3 mM EDTA; preferred; EMSA: 25 mM Tris-acetate pH 7.5, 3 mM EDTA (or 4 mM ATP/ATPgS + 1 mM Mg acetate), 1 mM DTT, 0.1 mg/ml BSA, 1 nM DNA (100 ng for M13), 15 min on ice, gels at 4 C; mass photometry: 25 mM HEPES-NaOH pH 7.5, 2 mM Mg acetate, 1 mM ATP, room temperature. Conditions: protein: recombinant, tags: C-terminal FLAG.

The target in another data set is MCM8 R309D;MBP-MCM9 (human;human, UniProt Q9UJA3;Q9NXL9 1-840;1-1143, R309D|). Put plainly: mass photometry; 1 mM ATP, 2 mM Mg acetate; heterodimer bound plus likely hexamer (Peak 4); EMSA: 25 mM Tris-acetate pH 7.5, 3 mM EDTA (or 4 mM ATP/ATPgS + 1 mM Mg acetate), 1 mM DTT, 0.1 mg/ml BSA, 1 nM DNA (100 ng for M13), 15 min on ice, gels at 4 C; mass photometry: 25 mM HEPES-NaOH pH 7.5, 2 mM Mg acetate, 1 mM ATP, room temperature. The conditions noted are these: protein: recombinant;recombinant; tags: N-terminal FLAG;N-terminal MBP (not cleaved); chain copies: 3;3; single strand.

The target of data set [2] is T1, HROB-FLAG. Put plainly: EMSA; 3 mM EDTA; EMSA: 25 mM Tris-acetate pH 7.5, 3 mM EDTA (or 4 mM ATP/ATPgS + 1 mM Mg acetate), 1 mM DTT, 0.1 mg/ml BSA, 1 nM DNA (100 ng for M13), 15 min on ice, gels at 4 C; mass photometry: 25 mM HEPES-NaOH pH 7.5, 2 mM Mg acetate, 1 mM ATP, room temperature. The conditions noted are these: protein: recombinant; tags: C-terminal FLAG; label: 3' 32P-dC (terminal transferase); single strand.

A further data set concerns the target T2, HROB-ΔOB (human, UniProt Q8N3J3-4 1-490+575-646, T126P;internal_change).
T2 sequence: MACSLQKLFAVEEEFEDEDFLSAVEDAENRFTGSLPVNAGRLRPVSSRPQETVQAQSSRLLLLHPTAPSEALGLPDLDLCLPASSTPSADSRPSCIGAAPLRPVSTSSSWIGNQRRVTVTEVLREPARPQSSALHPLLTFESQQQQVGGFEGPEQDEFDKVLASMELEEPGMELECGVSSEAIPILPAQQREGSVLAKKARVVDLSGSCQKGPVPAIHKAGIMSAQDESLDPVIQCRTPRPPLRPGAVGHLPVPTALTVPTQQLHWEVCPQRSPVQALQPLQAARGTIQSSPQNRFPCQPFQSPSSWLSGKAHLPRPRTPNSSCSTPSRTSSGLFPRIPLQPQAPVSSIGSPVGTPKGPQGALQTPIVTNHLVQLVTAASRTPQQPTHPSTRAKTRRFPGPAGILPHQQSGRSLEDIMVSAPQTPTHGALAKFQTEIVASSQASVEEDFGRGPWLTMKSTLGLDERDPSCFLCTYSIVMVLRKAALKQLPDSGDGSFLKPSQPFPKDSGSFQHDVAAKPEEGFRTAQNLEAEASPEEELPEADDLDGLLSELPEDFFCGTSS
Kind of data set: EMSA; 3 mM EDTA; comparable to WT HROB; EMSA: 25 mM Tris-acetate pH 7.5, 3 mM EDTA (or 4 mM ATP/ATPgS + 1 mM Mg acetate), 1 mM DTT, 0.1 mg/ml BSA, 1 nM DNA (100 ng for M13), 15 min on ice, gels at 4 C; mass photometry: 25 mM HEPES-NaOH pH 7.5, 2 mM Mg acetate, 1 mM ATP, room temperature. The conditions noted are these: protein: recombinant; tags: FLAG; label: 3' 32P-dC (terminal transferase); single strand.

Sequence of MCM8 R309D;MBP-MCM9 (Q9UJA3 whole entry R309D, chain 1 of 2): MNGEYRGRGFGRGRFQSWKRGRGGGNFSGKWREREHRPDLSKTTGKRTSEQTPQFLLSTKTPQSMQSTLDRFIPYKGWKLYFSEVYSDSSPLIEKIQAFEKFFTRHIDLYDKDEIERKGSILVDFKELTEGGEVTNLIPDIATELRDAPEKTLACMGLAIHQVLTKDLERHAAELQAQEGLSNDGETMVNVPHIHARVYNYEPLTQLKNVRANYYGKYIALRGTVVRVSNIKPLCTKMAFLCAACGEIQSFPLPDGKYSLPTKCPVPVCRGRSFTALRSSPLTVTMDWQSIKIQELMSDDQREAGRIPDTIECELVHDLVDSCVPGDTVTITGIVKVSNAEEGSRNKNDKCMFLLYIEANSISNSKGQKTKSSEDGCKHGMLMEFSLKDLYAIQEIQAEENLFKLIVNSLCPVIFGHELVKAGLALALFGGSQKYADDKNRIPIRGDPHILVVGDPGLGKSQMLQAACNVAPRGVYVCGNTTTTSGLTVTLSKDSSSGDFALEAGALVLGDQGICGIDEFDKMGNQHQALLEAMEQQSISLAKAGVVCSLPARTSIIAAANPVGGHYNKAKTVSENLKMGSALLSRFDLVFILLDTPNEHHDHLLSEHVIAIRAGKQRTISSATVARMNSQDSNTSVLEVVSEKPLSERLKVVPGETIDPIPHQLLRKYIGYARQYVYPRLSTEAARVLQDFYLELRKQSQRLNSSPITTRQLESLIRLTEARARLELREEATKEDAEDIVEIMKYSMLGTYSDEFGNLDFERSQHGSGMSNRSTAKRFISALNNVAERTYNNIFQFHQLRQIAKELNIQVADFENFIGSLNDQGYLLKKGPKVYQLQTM
Sequence of MCM8 R309D;MBP-MCM9 (Q9NXL9 whole entry, chain 2 of 2): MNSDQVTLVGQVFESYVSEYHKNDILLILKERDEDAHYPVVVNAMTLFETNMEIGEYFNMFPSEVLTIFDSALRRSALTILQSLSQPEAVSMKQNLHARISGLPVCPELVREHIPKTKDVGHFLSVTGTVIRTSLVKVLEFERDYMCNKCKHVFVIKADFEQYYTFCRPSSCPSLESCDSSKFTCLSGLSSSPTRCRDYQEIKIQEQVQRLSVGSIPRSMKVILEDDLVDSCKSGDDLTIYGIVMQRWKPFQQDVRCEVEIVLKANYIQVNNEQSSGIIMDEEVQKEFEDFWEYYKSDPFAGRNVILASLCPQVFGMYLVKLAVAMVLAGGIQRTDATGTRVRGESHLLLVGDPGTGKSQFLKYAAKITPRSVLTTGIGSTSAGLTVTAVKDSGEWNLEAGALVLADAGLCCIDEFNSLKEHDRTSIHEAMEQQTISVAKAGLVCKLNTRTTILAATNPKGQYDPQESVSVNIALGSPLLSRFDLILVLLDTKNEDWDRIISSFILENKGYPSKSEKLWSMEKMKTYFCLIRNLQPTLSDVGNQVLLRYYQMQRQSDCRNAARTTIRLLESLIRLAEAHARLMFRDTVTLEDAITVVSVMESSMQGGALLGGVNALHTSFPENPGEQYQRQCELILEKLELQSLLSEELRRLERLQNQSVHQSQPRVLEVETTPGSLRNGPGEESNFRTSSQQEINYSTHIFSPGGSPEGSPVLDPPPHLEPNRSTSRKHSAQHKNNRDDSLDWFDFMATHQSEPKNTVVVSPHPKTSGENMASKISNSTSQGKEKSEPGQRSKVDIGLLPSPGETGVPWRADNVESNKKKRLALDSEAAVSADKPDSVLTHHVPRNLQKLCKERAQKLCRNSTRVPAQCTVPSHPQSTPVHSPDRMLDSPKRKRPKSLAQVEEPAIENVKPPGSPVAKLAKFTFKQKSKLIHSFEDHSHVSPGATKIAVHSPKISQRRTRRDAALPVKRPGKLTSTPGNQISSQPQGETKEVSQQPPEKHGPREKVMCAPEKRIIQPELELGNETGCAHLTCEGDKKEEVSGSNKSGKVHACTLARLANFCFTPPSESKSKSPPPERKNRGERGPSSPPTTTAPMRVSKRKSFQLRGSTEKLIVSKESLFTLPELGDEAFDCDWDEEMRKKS

B1: Holliday junction (PC1253/PC1254/PC1255/PC1256) (structured_DNA)
DNA 1: TGGGTCAACGTGGGCAAAGATGTCCTAGCAATGTAATCGTCTATGACGTT
DNA 2: TGCCGAATTCTACCAGTGCCAGTGATGGACATCTTTGCCCACGTTGACCC
DNA 3: GTCGGATCCTCTAGACAGCTCCATGATCACTGGCACTGGTAGAATTCGGC
DNA 4: CAACGTCATAGACGATTACATTGCTACATGGAGCTGTCTAGAGGATCCGA
Regarding B1, the binding result in the data set with HROB-FLAG [1] (label: 3' 32P-dC on PC1253, four-way junction 1:2 2:3 3:4 4:1) was “binds”.

B2: Y-structure (PC1254/PC1253) (structured_DNA)
DNA 1: TGCCGAATTCTACCAGTGCCAGTGATGGACATCTTTGCCCACGTTGACCC
DNA 2: TGGGTCAACGTGGGCAAAGATGTCCTAGCAATGTAATCGTCTATGACGTT
Regarding B2, the binding result with HROB-FLAG [1] (label: 3' 32P-dC on PC1254, fork 1:2) was “binds”.

B3: PC216 (70 nt ssDNA) (ssDNA)
DNA: GTAAGTGCCGCGGTGCGGGTGCCAGGGCGTGCCCTTGGGCTCCCCGGGCGCGTACTCCACCTCATGCATC
For the molecule B3, the binding result with MCM8 R309D;MBP-MCM9 is given as “binds”.

B4: X12-3 HJ3 (93 nt ssDNA) (ssDNA)
DNA: GAGATCTATCTGGTGCCTTCTGACAGTGAATGGGTAACGAATCGTAATAGTCTCTAGACAGCATGTCCTAGCAATGTAATCGTCTATGACGTC
Turning to B4, the binding result with HROB-FLAG [2] and with HROB-ΔOB was “binds” each time.
